Consider 14 sequences from a protein production outcome set (Wang et al. 2014).

The data set can be described thus: label from the status in PepcDB records.

Take “MDLVSLVERIGEAPTAALFGLITGITFGVAAQRSRFCLRAATVEFARGRMEDKVAVWLLTFSTALVWVQAAQLMGLMNGADARMMAVPGSWSGAIIGGLMFGAGMVLARGCSGRLLVLAATGNLRSVVSGLIFAVVAQMSLSGLLSPLRDKLAALWITEGGRNMNLLSTFGLPEYGGLVLGLVCAVLALVLARRHRIGAARLVFASGVGFAVALGWVLTYALSQVAFEPVQIESATFTGPSAHTLMFFLDRNAVLEFDVGLVPGVFIGAMIAAALAGEMKIQAFDGPVTMRKAMIGAALMGFGGMLAGGCAIGAGVTGGSIFVGTAWAALFFMWVGAMATDFLIDQRAASPRAA”: the protein production entry is reported as “failed”.

Take “MDLYLDPSILIILIVFGFVAAFIDSVVGGGGLIALPALLFTGLNPASAVATNKLASTMGSATSNIVFYRSGNLNLKSAFKLVPLTFIGSIIGAWTVHLMNPEVLKPLMLIMLGAVAIYTIFKKDWGSISTHKKLSGRHVIIFTFFVFAIGFYDGFLGPGTGSFLMFSLLFIGYDFLKAAGNAKLLNLGSNVGALLMFMYVGQVNYAYGFIMGIAQIAGGIVGSKFAIKKGSGYVRALFITVTCLLLAKNLYDYIQ”: the protein production result is recorded as “failed”.

As to “MDMQHRIRQLFQASIETKQQALEVLPPYIEQASLVMVNALLNEGKILSCGNGGSAGDAQHFSSELLNRFERERPSLPAVALTTDSSTITSIANDYSYNEVFSKQIRALGQPGDVLLAISTSGNSANVIQAIQAAHDREMLVVALTGRDGGGMASLLLPEDVEIRVPSKITARIQEVHLLAIHCLCDLIDRQLFGSEE”, the protein production entry was “not failed”.

As for “MDNFVVTFARGFGTGGKAIASQLAKELGIHCYENRILTLASQLSGLDENVFQEVNEKLREEGGFTSFLRGLPRAKGYISRNEKFKSDDRLFEYQSQIINELADKESCVIVGKCADYVLKNRPNVVSIYIEAPRAFCVERTITNMGVTPEVANATIERTDKFRADYYKYYTHGNYWTNPVNYDLTLNSERVGVENCVKTIEQYLIIKGFIKADMIKPAGELI”, the protein production result is recorded as “failed”.

Consider “MDNIPDGDWYCYECVNKATNERKCIVCGGHRPSPVGKMIYCDLCPRAYHADCYIPPLLKVPRGKWYCHGCISRAPPPKKRSAGGTSGSSSKSRRDRDRESGGSAKRRSDNSKTPAMEHMQQQQMPLAGGDSHHHHHQQPPSLNSSHDESM”, for which the protein production entry was “failed”.

In the case of “MDNLTHYLATTLRTLRHQRGWSLSRLAEISGVSKAMLGQIERNESSPTVATLWKIATGLNVPFSVFISPPQAEFPPTFDPQQQAMVITPLFPWDPELCFDYFSLLLAPGTVSESTPHKAGVIEHVVVIQGRLDMCTGGVWQTIDAGKGLRFAGDTAHTYRNSSDQTVHFHSLIHYPRD”, the protein production result is “failed”.

As to “MDNQHNQNHIMGTLQWFIFLLANSIALPIVVGGLFHLTTEEIFYLMQRTFFVVGISSFLQGWLGHRLPIADGPAGSWVGVFTVLAYATAGQDQLHSTLQILELGMIISGIILIGLGVTGFIGRILFLFTPLVTGTFLLLLCLQLSGVFLKGMLGITATISQIDGFTAMIAFSIFLFVIILSNFGKGFVKSYAVLIGLISGWIIFLIAGKVTIPSQVTHFVQLPHIFAWGLPKWNTGMAVSSFVMVCILVSNTVAAIIAINQATIHKATIEQKQLKDGTWVGGISHIISSVFSTVGVVPLPATAGFIRLTKQKYIRSFLMACALLVVMSLFPSIIRYLASLPSAVASAVLMASFVQLIGIGFNNIKQVPMSERNVTILGVAVLFGSGVMFLPSGALQSLPSVMQYIFGNGLFVGTVVSILLEQIWRVGK”, the protein production result is recorded as “not failed”.

Consider “MDPEETSVYLDYYYATSPNSDIRETHSHVPYTSVFLPVFYTAVFLTGVLGNLVLMGALHFKPGSRRLIDIFIINLAASDFIFLVTLPLWVDKEASLGLWRTGSFLCKGSSYMISVNMHCSVLLLTCMSVDRYLAIVWPVVSRKFRRTDCAYVVCASIWFISCLLGLPTLLSRELTLIDDKPYCAEKKATPIKLIWSLVALIFTFFVPLLSIVTCYCCIARKLCAHYQQSGKHNKKLKKSIKIIFIVVAAFLVSWLPFNTFKFLAIVSGLRQEHYLPSAILQLGMEVSGPLAFANSCVNPFIYYIFDSYIRRAIVHCLCPCLKNYDFGSSTETSDSHLTKALSTFIHAEDFARRRKRSVSL”, for which the protein production result was “failed”.

For the sequence “MDPEIQPPPGKAEIKAKIWKLKTAPKIKHFLWKLLSGALATGDNLKRRHIRNHPQCHRCCQEDETSQHLFFDCFYAQQVWRASGIPHQELRTTGITMETKMELLLSSCLANRQPQLFNLAIWILWRLWKSRNQLVFQQKSISWQNTLQRARNDVQEWEDTNTYVQSLNQQVHSSRHQQPTMARTKWQRPPSTWIKYNYDGAFNHQTRNAKAGWLMRDENGVYMGSGQAIGSTTSDSLESEFQALIIAMQHAWSQGYRKVIFEGDSKQVEELMNNEKLNFGRFNWIREGRFWQKRFEEAVFKWVPRTNNQPADILAKHHLQPNQSFKFHYYVPAFITSTLYYDH”, the protein production result is “failed”.

For the sequence “MDPEVFAQARLRMDQLTKPPRALGYLEEVALRLAALQGRVKPELGRGAVVVAAADHGVVAEGVSAYPQEVTRQMVLNFLRGGAAINQFALAADCAVYVLDVGVVGELPDHPGLLKRKVRPGTANLAQGPAMTPEEAERALLAGREAARRAIAEGATLLAAGDMGIGNTTAAAALTAALLGLPPEAVVGRGTGVGEEGLRRKRQAVARALARLHPGMGPLEVAAEVGGLELVAIAGIYLEGYEAGLPLVLDGFPVTAGALLAWKMAPGLRDHLFAGHLSREPGHRHQLEALGLRPLLDLDLALGEGTGAVLAMPLLRAAARILHMATFQEAGVSRG”, the protein production entry is given as “not failed”.

For “MDPLALLRKAGLEAEGPALPLHGGDISRVWRVGRFVVKTAQDPPPGLFRAEARGLQALAERGVRVPQVHWVGEEGLVLAYLEPGPEDWEGLARTLAALHRRREGSYLAEPGFLGTFPLPGREGGEWTAFFYERCVLPLLEATWDRLQGLGPKVEALYRRPLPAEGPAPLHGDLWHGNVYFAREGPALLDPSFFVGERGVDLAMMRLFGGFPRRFWEVYGELYPVPEEVERALPRYQVYYLLAHVHFFGQGYLGALWRAISAS”, the protein production entry is “failed”.

Consider “MDPLEDVLTLLKTRSHLSASLVAGGRWAVRFDAPRVVKFNAVRRGTCQLEVDGIDEPIDLAEGDCYLLTRPRSFTLRSDPETAPVDGGAVFARAEDGIARAGQGDDVFLIGGGFSFGTRAQELLLDRLPPIVHVPADTPHAETVQWALTAIDQELTHRPMASTLIAEHLAVIMLVHVLRLHLERAPHAVSGWLAGLADPVVATALTCLHRDPARSWTVADLADTAAVSRSTLAARFKATVGQGPLEYLTRWRIELAARQLREGNATLASIAHSVGYGSESALSVAFKRVLGMPPGDYRKHPTMP”, for which the protein production entry is “failed”.

Take “MDPSAPALDSAFWITTGAILLLLILSGFFSGSETALTAASRGKLRSQADKGSKGAQKALAITDDNERLIGSVLLGNNLVNILAASLATALFTRAFGESGVALATLVMTLLVLIFAEVLPKTYAITNSEKAAAAVAPIIGVVVMVFSPVVALVRLLVRGVLRLFGVRIDPDSHIMAVREEIAGALYLGHSEGVVEKEDRDRILGALDLAERTVEEIMLHRSNIVMLDADAEPETILEHCLQSPHTRLPVYRGEPENIIGVVHAKDLFRAMYAQVGGSEGHTARLKDFDISRVANAPYFVPETTTLDDQMRAFLRMRSHFALVVDEYGSLRGLITLEDILEEIVGEITDEFDPAAEMPVTRSDDGQFLVDGAMTIRDVNRAMDWSLPDDEANTVAGLVIHEAQMIPTVGQVFAFHGFRFEVTGREGNRITGLKIRPL”: the protein production result was “failed”.

“MDQNTTPAPGLRETKKRETRQLISDHATRLFIERGFEHTTIAEIADAARVAKKTVTNYFPRKEDLALDHQDEFVAALAATVTARGAGETPLTALRHAFLAAVAAQDPVAGFAGQAFTRMIADSPTLTACLRGLHDRREEALTAALAGTTDTPPDDITPRTAAALLGGVHRVLFNRIQELTLAGRATPEIAEVLAREAPRAFDLLTPALAEYGRRP”: the protein production entry is listed as “not failed”.
